The text below walks through data of patent US12168677B2, “Proteins for the treatment of epithelial barrier function disorders” (Genevive, Inc., priority 2017, dated 2024).

One test concerns IL-23. The experiment in a line: IL-23 production by monocytes in co-culture TEER assay (Luminex). To be noted: for IL-23 production normalized to HK E. coli only (set to 1.0): pre-incubated 6 hours prior to HK E. coli, basolateral supernatant. Format: cell-based, human. The procedure: (§1) Production of the cytokines TNF-α, IL-23, and IL-10 by monocytes was measured in the tissue culture supernatant from the basolateral chamber of the co-culture TEER assay performed in Example 1B. Following TEER readings, the supernatants were centrifuged at 10,000 g for 5 minutes at 4° C. to remove cell debris. Luminex analysis was performed according to the manufacturer's instructions (Magpix instrument and xPonent software version 4.2; Luminex Corporation (Austin, TX)). Luminex analysis was performed to determine the […] concentration of TNF-α and IL-23 produced by monocytes. Luminex analysis utilizes a bead-based system for quantification of multiple cytokines from a single sample. Like an ELISA, Luminex beads are coated with a capture antibody, and incubation with samples allows the target to bind to the capture antibody. Beads are washed and incubated with a fluorescently labeled detection antibody for quantification of bound target. Cytometric analysis is used to differentiate bead populations, which are loaded with differential fluorescent dyes, and to quantify cytokine levels by measuring detection antibody signal. TNF-α, IL-23, and IL-10 production in untreated cells and cells pre-incubated with SG-15 for 6 hours prior to HK E. coli treatment was normalized to pg/ml concentrations elicited by HK E. coli only, which was set to 1.0. […] The graphs in FIGS. 2A, 2B and 2C each represent data pooled from an individual experiment (n=3).

For test [1], the system named is DSS treated mice. The test can be described thus: DSS model: colon weight to length ratio. The test is classed as in vivo, C57BL/6 mice. The settings on record: 2.5% DSS 6 days. Here is the method: Eight-week old C57BL/6 mice were housed 5 animals were cage and given food and water ad libitum for 7 days. Following the 7-day acclimation period, treatments were initiated concurrently with addition of 2.5% DSS to the drinking water. […] The mice were treated with 2.5% dextran sodium sulfate (DSS) in their drinking water for 6 days. Treatments were continued with SG-15 or […]-GLP2 twice a day (b.i.d.) in the morning and evening (every 8 and 16 hr) with i.p. injections at 50 nmoles/kg. Fresh 2.5% DSS drinking water was prepared every 2 days. Colon length and weight were measured in mice included in the DSS model study described in Example 1E. […] Accordingly, the ratio of tissue weight to length can be used as a readout of DSS induced tissue damage. SG-15 administration to DSS treated mice (Example 1E) reduced the colon weight to length ratio elicited by DSS (DSS=3.9 mg/mm, DSS+SG-15=3.5 mg/mm; p=0.13). […] However, no difference was observed between treated with SG-15 as compared to treatment with […]GLP2. The graph in FIG. 9 represents data pooled from the 2 individual experiments (n=20).

The subject of test [2] is DSS treated mice. The test can be described thus: DSS model: colon length. The test is classed as in vivo, C57BL/6 mice. The settings on record: 50 nmoles/kg i.p. b.i.d.; 2.5% DSS 6 days. Here is the method: Eight-week old C57BL/6 mice were housed 5 animals were cage and given food and water ad libitum for 7 days. Following the 7-day acclimation period, treatments were initiated concurrently with addition of 2.5% DSS to the drinking water. […] The mice were treated with 2.5% dextran sodium sulfate (DSS) in their drinking water for 6 days. Treatments were continued with SG-15 or […]-GLP2 twice a day (b.i.d.) in the morning and evening (every 8 and 16 hr) with i.p. injections at 50 nmoles/kg. Fresh 2.5% DSS drinking water was prepared every 2 days. Colon length was measured in mice included in the DSS model described in Example 1E. […] The graph in FIG. 8 represents data pooled from the 2 individual experiments (n=20).

The test system of test [3] is HCT8 enterocytes and HT29-MTX goblet cells. The test can be described thus: Epithelial cell wound healing (Oris Cell Migration assay). Format: cell-based, human. To be noted: SG protein 1 μg/ml, EGF 30 ng/ml, staurosporine 100 nM; 48 hours. From the text:
HCT8 enterocytes and HT29-MTX goblet cells were used in wound healing studies. The 96 well Oris Cell Migration assay containing plugs preventing cell attachment in the center of each well was used according to the manufacturer's instructions (Platypus Technologies, Madison, WI). The migration assay plates were warmed to room temperature prior to use and plugs were removed from 100% confluence wells prior to cell addition. The HCT8 enterocyte and HT29-MTX goblet cell lines were used at a 9:1 ratio with a total of 5×10^4 total cells added per well (4.5×10^4 HCT8 cells and 0.5×10^4 HT29-MTX cells). […] Plugs were then removed from all control and sample wells. Control wells included cells treated with the diluent vehicle as the blank, 30 ng/ml epidermal growth factor (EGF) as the positive control, and 100 nM staurosporine as the negative control, all diluted in cRPMI. Sample wells contained SG-15 protein at a concentration of 1 μg/ml diluted in cRPMI. 100% and 0% wells were cultured in cRPMI. […] Prior to staining for viable cells, plugs were removed from the 0% wells. Treatment media was removed and cells were washed in PBS containing 0.9 mM CaCl2) and 0.5 mM MgCl2. […] Relative fluorescent values from 100% wells where plugs were removed prior to cell plating were set as the max effect, and 0% wells where plugs remained in place until immediately before staining were used as the baseline. Samples were normalized between 100% and 0% samples and values expressed as a percent growth.

A further test deals with TNF-α. The experiment in a line: TNF-α production by monocytes in co-culture TEER assay (Luminex). The test is classed as cell-based, human. To be noted: pre-incubated 6 hours prior to HK E. coli; basolateral supernatant. Here is the method:
as §1

The subject of test [4] is LPS binding protein (LBP). The experiment in a line: DSS model: LPS binding protein in serum (ELISA). Format: in vivo, C57BL/6 mice. The settings on record: 50 nmoles/kg i.p. b.i.d.; 2.5% DSS 6 days. Here is the method: Eight-week old C57BL/6 mice were housed 5 animals were cage and given food and water ad libitum for 7 days. Following the 7-day acclimation period, treatments were initiated concurrently with addition of 2.5% DSS to the drinking water. […] The mice were treated with 2.5% dextran sodium sulfate (DSS) in their drinking water for 6 days. Treatments were continued with SG-15 or […]-GLP2 twice a day (b.i.d.) in the morning and evening (every 8 and 16 hr) with i.p. injections at 50 nmoles/kg. Fresh 2.5% DSS drinking water was prepared every 2 days. SG-15 was also assessed for its effects on the levels of LPS binding protein (LBP) in the blood of the DSS animal with and without SG-15 administration. LPS binding protein (LBP), which has been linked to clinical disease activity in subjects with inflammatory bowel disease, was also measured by ELISA in the serum of mice tested in the DSS model described in Example 1E. […] Results are shown in FIG. 5, and are presented as mean±SEM. The graph in FIG. 5 represents data pooled from the 2 individual experiments (n=20).

Setting [5] is: DSS+SG protein, 50 nmoles/kg i.p. b.i.d., unit not given.

B1: SG-18: 267 amino acid protein (SEQ ID NO:19) encoded by the genome of Clostridium bartlettii sp. nov. (protein, listed as Clostridium bartlettii)
chain: EVDSSKEQATSKDEKQVVVATSVAITEILDRLGVEVSGVPQTSYELPESAKGATEIGSPMNPDMEIIKSLNPTDVICVDTLGSDFEKQFEENNINADFYNLSNVDGLKETIAALGEKFNKQDKANEILDEIKEVENKVNSNKKSDDKILVLFGAPGSVMVATDKSYIGNLVELAGGNNIFSNATSSFTQINLEEIIKLNPDKILVMTHAVPEAAKKSVEEELSKDLWKNVNAVKNNDITYLENGYFGMSANLQIVEAVEKLGDILYE
Consider B1, for which the “IL-23 production normalized to HK E. coli only (set to 1.0)” value (from here on “IL-23 production normalized”) in the test on IL-23 is given as 1.10. Besides, the “Colon weight to length ratio” value in the test on DSS treated mice [1] (setting [5]) amounted to 3.3. The “Colon length / colon shortening elicited by DSS treatment” value with DSS treated mice [2] was “did not reduce colon shortening”. Besides, in test [3], the “Wound healing, percent growth” value is “slight increase in growth”. The “TNF-α production normalized to HK E. coli only (set to 1.0)” value (shortened to “TNF-α production normalized”) with TNF-α came to 1.06.

B2: SG-15: 400 amino acid protein (SEQ ID NO:1) encoded by the genome of Eubacterium eligens (protein, listed as Eubacterium eligens)
chain: EYTEIRTASELVEAAKSASGNYKLMTDIDMTGVEWTPWDFSGTFDGNGHSILNLSVKTVSKKTMKTYDGNRKEYKTYGAGFFGVLTGAKVTGLDIYGARIEITTTEPCFAAPIAGLADDSDISDCIIKDTYVSLTDSAKMWGTGGIAGFGSGNLDNITTDVTLVCVDTDAAVRDEQFMGGAYAAGFLNIRNCSITIDGYDSDHGYVHDGGLVGMYMVYPLELSKTYQGEVLNNKVKGMITFFEDNTDRRAYCQANMGEVMNWTYAYSGFTSDFKRNETYDYSVTLLPEMCSNPSYTDVVTEATASDFGYTTHTCSTCGYTYSDTYTIHEHKVDSYSVVKEAASTDKKDGIEAGTCSLCNQTVYREYAANVVTDDNTQATDNKASGTAVKKGMKESTAVFA
Take B2: in the test on IL-23 (cells treated with SG-15 and HK E. coli), the “IL-23 production compared with control cells treated with media only” value was “no significant difference”. In addition, the “IL-23 production normalized” value with IL-23 came out at 0.57. Moreover, the “Colon weight to length ratio, SG protein compared with Gly2-GLP2” value in the test on DSS treated mice [1] (50 nmoles/kg i.p. b.i.d.) is listed as “no difference”. The “Colon weight to length ratio” value with DSS treated mice [1] (DSS+SG-15, 50 nmoles/kg i.p. b.i.d.) is reported as 3.5 mg/mm. In addition, the “Colon length / colon shortening elicited by DSS treatment” value in the test on DSS treated mice [2] is listed as “reduced colon shortening”. Moreover, in test [4], the “LBP in serum compared to DSS mice treated with vehicle” value was “significant reduction in LBP”. Further, in test [3], the “Wound healing, percent growth” value is “significant increase in growth”. The “TNF-α production normalized” value with TNF-α stood at 0.91.

B3: SG-17: 327 amino acid protein (SEQ ID NO:13) encoded by the genome of Eubacterium eligens (protein, listed as Eubacterium eligens)
chain: CNSKIDVKYDYNVEDYVQLGQYENISVQVDKTSIENELIESKIKQDVEDNTTYTEVDRGAIASDQILVTYTATSSGASLSGLTNTDGKTMILGTDTLGLELDELDQALYGMTPGQTKILIVDIPEDYSSDLYKGTRVVFELTMQTVAQANVPMITNAYVKEAFGYDTVEEYRQSIKESLETDINSKVENKIQEDVLSSLQDTFKISSYPDSLMEETRSRLETSIGFYADFSNLSKDEYCQKQYGLSFDDFVKKSVVQQLIMEAIVKDRNMTMREYDYKGSLDDFAADNGYSNADTFVEKFGKDKIVKAMLVQKAQDYVIEHANISYK
As to B3, the “IL-23 production normalized” value in the test with IL-23 turned out to be 1.10. Moreover, in the test on DSS treated mice [1] (setting [5]), the “Colon weight to length ratio” value was found to be 3.14. In addition, the “Colon length / colon shortening elicited by DSS treatment” value with DSS treated mice [2] is on record as “did not reduce colon shortening”. Also, in test [4], the “Impact on LBP concentration compared to control peptide Gly2-GLP2” value is “greater impact on LBP concentration” and the “LBP in serum compared to DSS mice treated with vehicle” value was “significant reduction in LBP”. For the same molecule, in test [3], the “Wound healing, percent growth” value is given as “significant increase in growth”. In addition, the “TNF-α production normalized” value in the test with TNF-α is reported as 0.73.

B4: SG-16: 119 amino acid protein (SEQ ID NO:9) encoded by the genome of Eubacterium eligens (protein, listed as Eubacterium eligens)
chain: MTGCSGSKEPDNKTSVDYTVVENADLPEELKKLIESKKDKVMRLTYTTKDYTYVVAGYGTRETSGYSIKVNDVYTGDNALYIDLNLIGPAAGEAVNEVETYPVIVLKMERREESVVFKM
Take B4: the “IL-23 production normalized” value in the test with IL-23 was 1.06. In addition, the “Colon weight to length ratio” value in the test on DSS treated mice [1] (setting [5]) is 4.1. Besides, the “Colon length / colon shortening elicited by DSS treatment” value with DSS treated mice [2] is recorded as “slightly improved colon shortening”. The “LBP in serum compared to DSS mice treated with vehicle” value in test [4] is listed as “No change in LBP”. Besides, in test [3], the “Wound healing, percent growth” value is recorded as “significant increase in growth”. Moreover, in the test on TNF-α, the “TNF-α production normalized” value is listed as 1.29.
